The source of these data is the DeepSol protein solubility set.

The series is described as follows: soluble on expression in E. coli; label from the status in PepcDB or PDB records.
Take “MGSISRYLLKKAADGLKDEQRLKIEMSDSKSVPECFHFNRERRMPIAEINGEDGFFMFPSQQSLENFENTKKYSNELSPDAIGIPLFQIINCTLPFGKRGHSNTVVGNVPYYKIFKFILRTADEPPPYTVAKIVCSNNGLILYKVPLYDIYKNVSQANVTYSFVGTTSTEPNLLAMAHREGHRDLDTKVNNLNLRWHVTYSPVVTNDHYKLILLADYEVNRLDEDVIRAAKNKMSIDQKDQKVQRFVAAHYTREFETSLFRWVAQEGHLILGEYSTDQGSFGLNNIPPLTEELGCQSLLIHYIEYMKRQRKKIAKEARRQNKRNVANTTNMNMNLM”: the “soluble on expression in E. coli” value is reported as “soluble”. On to “QVQLQESGPGLMKPSETLSLTCSVSGDSIRSDYWSWIRKPPGKGLEYIGYVSYSGSTYYNPSLKSRVTISVDTSKNRFSLKLNSVTAADTAVYYCARWDGDYWGQGILVTVSS”, for which the “soluble on expression in E. coli” value is given as “soluble”. In the case of “MGSDKIHHHHHHHEEADYSQEAHHLVEFGTLLQDDPNVIVPKYHADLSTRDVLAMDFVPSHPIDDLEAADQSERDRVATQLIALMMREVFSFQRVQSDPNFANFRWQPDTGRVVLLDFGATRVLSDNLVNAARQVLRPALDNDLTALANALRELGLLDDALPDQARKTILEMVALANEPMMDPDGFDFGNTSLVTELRTSGMALGQDRSIQSIPPIEVLYLQRKAAGLFLLATRLRARVDLRSLFKS” it was “not soluble”; in that of “MLLVSGCSGELYSSHTHSLRWFCQSPEGCEREAEVKALARVLLYTDTFTLYTDYGQFAVDFVQRVPSDELPRECDALYGLSLFGHELESSTLCSVGGDAYEMRISVPNRNPSSASEWLAEMRPL”, “not soluble”. In the case of “GSHMSPKIVDAGTATVPHTMSTMKTADNRPASVYLKKDKPTLIKFWASWCPLCLSELGQAEKWAQDAKFSSANLITVASPGFLHEKKDGEFQKWYAGLNYPKLPVVTDNGGTIAQNLNISVYPSWALIGKDGDVQRIVKGSINEAQALALIRNPNADLGSLKHS” it was “soluble”; in that of “LSLLLEVSGNPKAGNVDREHDFDDLKFEHFLASAAGAFPAFLEVAEKRIIGEGVLRAVKESMRWHRAENVHFGAFLLLVPLISSWDAGGMVDIAEAARNRLRRTDFRDSLSVLEAFRLSNARVVEAGELNLKDRKTEEEIAQKKINLYEWMKMAPEENLIARELVDGFKISIEGAKFLLSFGNSGKAVVELYYHLLSKFPDPLVIAKMGREYAEKITEWAEKARTEEERKELDEKLLKDGANPGTIADLTASSI”, “not soluble”; in that of “MRLTIPILKEGGMLMKFGFIGAGKVGFSLGKYLADNNQNVVGYYSIINEEAIEAAKFTGSKYYENMEQLVEDSEVLFLTVPDGQIENLWNQLKSSHKNWMAKYNKPLLNNKIVCHCSGALSSDIFSSIAEYESFGYSIHPLFAVSNRYESYKELSDSYFTIEGNIEKINKMKELFESFGNTVCIISKDDKIKYHGAAAIASNLVVGLIGLSEELLKQCGFDEKSAHNALAPIIKGNVKHIVEEGVVEALTGPIERCDVSTVRKHMSVFDKKTNEIYKAVSKEVLEIAKIKNKDRDYSKMEEVLQ”, “not soluble”.

On to “MNPIIDGIIALEGGYVFNPKDKGGATHWGITEATARAHGYAGDMRDLTHAEAYAILEEDYWIKPGFDVISTLSWPVSFELCDAAVNIGAYHPSAWLQRWLNVFNHEGKRYPDIHVDGNIGPRTLAALEHYLAWRGQEGEAVLVKALNCSQGTYYLNVAEKNHNNEQFIYGWIKNRVT”, for which the “soluble on expression in E. coli” value is listed as “soluble”. In the case of “MESLYTSTLSEISEEEIVKGRIVSISNKDVTIDVGFKSEGIVSLLEFRDDDEIKVGDDVEVYLENIEDKMGQLILSKRKADVLRIWDKIYDSIENDTIINGKIINRVKGGMTVSLSGVEAFLPGSQIDVKPVRDFDALVGKTMDFRVVKINPVTQNIVVSHKVILEEEYAAKREEMLANIKVGMVLEGTVKNITDFGIFVDLGGLDGLVHITDITWGRINHPSEVVELDQPIKVVVVGFDENTKRVSLGMKQLEAHPWENIEIKYPVGIKATGRVVSITDYGAFVEIEKGIEGLVHISEMSWTQHIKHPSQFVSLNQEVEVVILNIDKEHTKLSLSMKRVSEDPWIALSEKYVEGSLHKGTVSNITDFGVFVELEPGVDGLVHISDLSWTKKIRHPSELVKKGQELEVKVLKFDVNARRIALGHKQINNDPWGEFEQKYAVGAECTGAISQIIEKGVIVILPGEVDGFVPVSHLLQGGVKDIHSSFKIGDELPLRVIEFDKENKRIILSALEYFKDKSKEEIEAYLQAHPNEKKEIEAASAELEPQPKGR” it was “not soluble”.
